± gives the uncertainty stated by the source.

The nature of this data set: self-splicing fitness, log relative to wild type (ln ratio); higher = more splicing; Tetrahymena group I intron in knt gene, E. coli kanamycin selection, DiMSum; sequences stand for … in CUCUCU…GGAGGGAAAAGUUAUCAGGCAUGCACCUGGUAGCUAGUCUUUAAACCAAUAGAUUGCAUCGGUUUAAAAGGCAAGACCGUCAAAUUGCGGGAAAGGGGUCAACAGCCGUUCAGUACCAAGUCUCAGGGGAAACUUUGAGAUGGCCUUGCAAAGGGUAUGGUAAUAAGCUGACGGACAUGGUCCUAACCACGCAGCCAAGUCCUAAGUCAACAGAUCUUCUGUUGAUAUGGAUGCAGUUCACAGACUAAAUGUCGGUCGGGGAAGAUGUAUUCUUCUCAUAAGAUAUAGUCGGACCUCUCCUUAAUGGGAGCUAGCGGAUGAAGUGAUGCAACACUGGAGCCGCUGGGAACUAAUUUGUAUGCGAAAGUAUAUUGAUUAGUUUUGGAGUACUCGUGGUCG
In short, it runs like this: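 The eight P1ex-region nucleotides of an intron in the knt kanamycin-resistance gene on pET-22b(+) were all randomised and the library put into E. coli BL21(DE3). Six replicate transformations were grown overnight at 37°C or 30°C on LB agar with or without 25 μg/mL kanamycin, together with 100 μg/mL carbenicillin, 50 μM IPTG and 0.2% rhamnose. Colonies were pooled and amplicon-sequenced on an Illumina HiSeq 2500. Fitness from DiMSum is the error-weighted combination of wild-type-normalised replicate fold changes, kanamycin over none.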

For the sequence GAGCAGCAAUAUUACGCACG, the “self-splicing fitness (ln)” value (30 °C) was -1.11 ± 0.061 and the “self-splicing fitness (ln)” value (37 °C) was -0.692 ± 0.083.

For GGAGAGCAAUAUUACGGCCG, the “self-splicing fitness (ln)” value (30 °C) was -3.74 ± 0.42 and the “self-splicing fitness (ln)” value (37 °C) is -2.16 ± 0.42.

On to GAAUAGCAAUAUUACGUGAG, for which the “self-splicing fitness (ln)” value was -1.19 ± 0.057 (30 °C) and -0.737 ± 0.1 (37 °C).

For CGGCAGCAAUAUUACGCCGA, the “self-splicing fitness (ln)” value reads like this: (30 °C) -2.87 ± 0.29; (37 °C) -2.76 ± 0.34.

For the sequence UACUAGCAAUAUUACGGUAG, the “self-splicing fitness (ln)” value is, setting by setting: (30 °C) -1.92 ± 0.11; (37 °C) -1.09 ± 0.12.

On to CGAGAGCAAUAUUACGUUCA, for which the “self-splicing fitness (ln)” value reads like this: (30 °C) -2.34 ± 0.21; (37 °C) -2.69 ± 0.31.

In the case of GGUCAGCAAUAUUACGCGAA, the “self-splicing fitness (ln)” value runs as follows: (30 °C) -0.889 ± 0.069; (37 °C) 0.00884 ± 0.088.

Take UCUGAGCAAUAUUACGAAAG: the “self-splicing fitness (ln)” value runs as follows: (30 °C) -2.21 ± 0.27; (37 °C) -1.71 ± 0.27.

For UGAGAGCAAUAUUACGCAAA, the “self-splicing fitness (ln)” value (37 °C) is -0.61 ± 0.36.

Consider AACAAGCAAUAUUACGUCAA, for which the “self-splicing fitness (ln)” value is -1.68 ± 0.094 (30 °C) and -1.59 ± 0.11 (37 °C).

For UGUUAGCAAUAUUACGUACA, the “self-splicing fitness (ln)” value reads like this: (30 °C) -0.999 ± 0.11; (37 °C) 0.16 ± 0.13.

With UACAAGCAAUAUUACGCUAU, the “self-splicing fitness (ln)” value is -3.38 ± 0.13 (30 °C) and -1.83 ± 0.11 (37 °C).

For AGCCAGCAAUAUUACGUUUA, the “self-splicing fitness (ln)” value (30 °C) is -2.7 ± 0.35 and the “self-splicing fitness (ln)” value (37 °C) was -2.48 ± 0.38.

As to GUUGAGCAAUAUUACGGGUC, the “self-splicing fitness (ln)” value was -2.23 ± 0.26 (30 °C) and -1.89 ± 0.28 (37 °C).

Turning to CACAAGCAAUAUUACGAUAA, the “self-splicing fitness (ln)” value by setting is: (30 °C) -4.26 ± 0.33; (37 °C) -2.22 ± 0.16.

Turning to GUACAGCAAUAUUACGGGCG, the “self-splicing fitness (ln)” value (30 °C) is -2.46 ± 0.18 and the “self-splicing fitness (ln)” value (37 °C) is -1.11 ± 0.15.

On to CCAGAGCAAUAUUACGUUGU, for which the “self-splicing fitness (ln)” value runs as follows: (30 °C) -3.81 ± 0.2; (37 °C) -3 ± 0.26.

In the case of ACUGAGCAAUAUUACGGCCU, the “self-splicing fitness (ln)” value is -2.58 ± 0.23 (30 °C) and -2.12 ± 0.25 (37 °C).

On to GAUAAGCAAUAUUACGGAUU, for which the “self-splicing fitness (ln)” value is, setting by setting: (30 °C) -3.19 ± 0.14; (37 °C) -1.91 ± 0.12.

Take GUGAAGCAAUAUUACGACCA: the “self-splicing fitness (ln)” value was -0.647 ± 0.18 (30 °C) and 0.84 ± 0.19 (37 °C).

As for CUACAGCAAUAUUACGUGCA, the “self-splicing fitness (ln)” value was -3.73 ± 0.35 (30 °C) and -2.5 ± 0.18 (37 °C).

For the sequence UGUUAGCAAUAUUACGUUCU, the “self-splicing fitness (ln)” value (30 °C) was -1.29 ± 0.14 and the “self-splicing fitness (ln)” value (37 °C) is -0.157 ± 0.16.

Turning to CCUCAGCAAUAUUACGACGC, the “self-splicing fitness (ln)” value runs as follows: (30 °C) -3.56 ± 0.4; (37 °C) -2.43 ± 0.45.

For AACUAGCAAUAUUACGUAGG, the “self-splicing fitness (ln)” value is, setting by setting: (30 °C) -2.36 ± 0.11; (37 °C) -1.29 ± 0.12.

Consider AUGUAGCAAUAUUACGGGAA, for which the “self-splicing fitness (ln)” value reads like this: (30 °C) -2.34 ± 0.38; (37 °C) -3.07 ± 0.47.

Take GAACAGCAAUAUUACGUAUC: the “self-splicing fitness (ln)” value was -2.83 ± 0.1 (30 °C) and -1.39 ± 0.12 (37 °C).

For the sequence UUCGAGCAAUAUUACGCCCA, the “self-splicing fitness (ln)” value by setting is: (30 °C) -2.1 ± 0.31; (37 °C) -1.15 ± 0.22.

Turning to CCACAGCAAUAUUACGCUCG, the “self-splicing fitness (ln)” value (30 °C) was -1.34 ± 0.077 and the “self-splicing fitness (ln)” value (37 °C) was -0.135 ± 0.088.

Consider AAAUAGCAAUAUUACGUAAA, for which the “self-splicing fitness (ln)” value reads like this: (30 °C) -1.61 ± 0.096; (37 °C) -0.713 ± 0.11.

As to UAGGAGCAAUAUUACGCGCG, the “self-splicing fitness (ln)” value runs as follows: (30 °C) -0.62 ± 0.11; (37 °C) -1.29 ± 0.14.

On to AAUCAGCAAUAUUACGUCCG, for which the “self-splicing fitness (ln)” value is -1.59 ± 0.085 (30 °C) and -0.00732 ± 0.11 (37 °C).

With GGACAGCAAUAUUACGACAU, the “self-splicing fitness (ln)” value was -0.378 ± 0.012 (30 °C) and -0.0143 ± 0.032 (37 °C).

As to CUCGAGCAAUAUUACGUAGA, the “self-splicing fitness (ln)” value (30 °C) was -3.34 ± 0.21 and the “self-splicing fitness (ln)” value (37 °C) is -1.64 ± 0.14.

GCCGAGCAAUAUUACGGACU: the “self-splicing fitness (ln)” value runs as follows: (30 °C) -1.86 ± 0.2; (37 °C) -0.863 ± 0.15.

With AUUGAGCAAUAUUACGUUAG, the “self-splicing fitness (ln)” value (30 °C) was -3 ± 0.14 and the “self-splicing fitness (ln)” value (37 °C) was -2.73 ± 0.19.

For the sequence AGGAAGCAAUAUUACGGUGC, the “self-splicing fitness (ln)” value (30 °C) is -3.36 ± 0.21 and the “self-splicing fitness (ln)” value (37 °C) was -2.51 ± 0.2.

Take CGUAAGCAAUAUUACGGGAU: the “self-splicing fitness (ln)” value is -3.63 ± 0.18 (30 °C) and -3.29 ± 0.35 (37 °C).

For the sequence UACCAGCAAUAUUACGCUAA, the “self-splicing fitness (ln)” value was -1.14 ± 0.081 (30 °C) and -0.492 ± 0.092 (37 °C).

These data come from the supplement of paper PMC7877785.
